# Results from PMC10746786 (2023).
# Columns and labels:
# PRRC2A = experiment: co-immunoprecipitation followed by mass spectrometry; conditions: FLAG-tagged EIF4G2 transfected into HEK293T cells; corrected for EIF4G2 levels in IP; read off a plot
# PRRC2B = experiment: as above; conditions: FLAG-tagged EIF4G2 transfected into HEK293T cells; corrected for EIF4G2 levels in IP; read off a plot
Substance,ratio to parent (PRRC2A),ratio to parent (PRRC2B)
FLAG-tagged EIF4G2 WT (from UniProt P78344) R165C,3,
FLAG-tagged EIF4G2 WT (from UniProt P78344) R178Q,3,2.3
